The source of these data is article PMC6497274, “Isolation of nanobodies against Xenopus embryonic antigens using immune and non-immune phage display libraries” (PLoS ONE, 2019).

Positions count from the first letter of the chain named.

For assay [1], the target named is T1, BSA (Bos taurus, UniProt P02769).
T1 construct: BSA (serum albumin), negative control coating in ELISA
Put plainly: ELISA; 96-well plate coated with 1 μg/ml Ndel1-MBP or BSA; purified nanobodies at 2 μg/ml in 2% skim milk in PBS/0.05% Tween-20, 4 h at room temperature; detected by anti-His-tag antibody. The following applies: both partners purified. A general note: ELISA stands for enzyme-linked immunosorbent assay.

The target of assay [2] is T2, Npm2 (nucleoplasmin) (Xenopus laevis, UniProt P05221).
T2 construct: predicted molecular weight 22 kDa, found as a 170 kDa band in SDS-PAGE; it was not measured here; also called 170 kDa band; source: endogenous, Xenopus laevis embryo lysate; copies: 10
Put plainly: far-Western, overlay or dot blot; immunoblot: Xenopus embryo lysates of different stages on 10% SDS-PAGE, PVDF membrane probed overnight at 4°C with purified His-tagged nanobody (0.2-3 μg/ml), detected by anti-His6 antibody. The following applies: one partner purified. A general note: A western blot detects proteins with antibodies after separation by electrophoresis.

The target of assay [3] is T2, Npm2 (nucleoplasmin). Put plainly: affinity purification with mass spectrometry; purified His-tagged nanobody incubated with Xenopus embryo lysate (1% Triton X100 lysis buffer), captured on His60 Ni Superflow resin overnight at 4°C, SDS-PAGE, SimplyBlue staining, 170 kDa band cut out for LC-MS/MS. The following applies: one partner purified.

T1 sequence (P02769 25-607): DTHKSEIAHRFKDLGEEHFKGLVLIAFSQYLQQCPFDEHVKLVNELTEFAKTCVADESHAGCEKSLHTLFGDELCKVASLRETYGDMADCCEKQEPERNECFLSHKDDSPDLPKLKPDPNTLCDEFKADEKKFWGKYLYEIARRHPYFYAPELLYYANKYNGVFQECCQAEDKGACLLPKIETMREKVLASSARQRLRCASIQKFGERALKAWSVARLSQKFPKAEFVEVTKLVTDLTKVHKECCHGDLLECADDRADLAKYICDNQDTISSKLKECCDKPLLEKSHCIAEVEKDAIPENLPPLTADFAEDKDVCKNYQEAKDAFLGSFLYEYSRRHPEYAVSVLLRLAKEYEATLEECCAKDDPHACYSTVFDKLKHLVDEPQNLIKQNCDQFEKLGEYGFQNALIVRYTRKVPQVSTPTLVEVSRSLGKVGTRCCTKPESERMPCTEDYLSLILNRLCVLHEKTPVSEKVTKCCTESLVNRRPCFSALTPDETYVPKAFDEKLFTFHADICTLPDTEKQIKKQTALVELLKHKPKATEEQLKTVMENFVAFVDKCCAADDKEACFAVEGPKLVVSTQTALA
T2 sequence (P05221 whole entry): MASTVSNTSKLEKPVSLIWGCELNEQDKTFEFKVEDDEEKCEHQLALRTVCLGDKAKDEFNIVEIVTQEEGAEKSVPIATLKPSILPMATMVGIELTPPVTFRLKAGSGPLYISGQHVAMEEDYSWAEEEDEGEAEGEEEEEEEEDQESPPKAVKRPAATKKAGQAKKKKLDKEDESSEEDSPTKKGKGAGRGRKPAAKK

B1: NbG6 (VHH)
VHH: DVQLQASGGGLVQPGASLRLSCVSTRNTFSIDPMSWYRRAPGKGLEWVSGISNRGGSTSYADSVKGRFTISRDNIKSTLYLQMNSLKPEDTAVYYCNADASRWGSWGQGTQVTVSS
notes: nanobody from the semi-synthetic non-immune llama library Nomad#1; His6-tagged alkaline phosphatase fusion from pecan16; source: E. coli BL21Star periplasm (pecan16), purified (IMAC)
B1: the binding result in assay [1] was “no binding (tested: 2 μg/ml)”.

B2: NbN39 (VHH)
VHH: VQLQASGGGLVQAGGSLRLSCTFSGGTFNGRNMGWFRQAPGKEREFAATISASGGRTYYAESVLGRFTISRDNARNTVYLQMNNLTPEDTAVYFCAAKRPTRLSENYDYKTENDYDYWGQGTQVTVS
notes: nanobody from the immune llama library; Nucleus-staining nanobody; used as negative control in the Ndel1 ELISA; source: bacterial periplasm (pecan126 phagemid clone), purified (IMAC)
On to B2, for which the binding result in assay [2] is “binds”.

B3: NbE9 (VHH)
VHH: QVKLQESGGGSVQHGGSLRLSCVASGLSFSNHWMYWVRQAQGKGLEWVSSINPSGSFTSYTDSAKGRFTISKANDGHTVYLQMNNLKPEDTGVYYCGLGSWSELEYSYSYWGRGTQVTVSS
notes: nanobody from the semi-synthetic non-immune llama library Nomad#1; His6-tagged alkaline phosphatase fusion from pecan16; also called AP-NbE9; 6His-AP-NbE9; source: E. coli BL21Star periplasm (pecan16), purified (IMAC); not shown: alkaline phosphatase, C-terminal, kept
Regarding B3, the binding result in assay [1] was “no binding (tested: 2 μg/ml)”.

B4: NbE7 (VHH)
VHH: B3 VHH with Q1K, K3Q, E6A, S11L, H14P, R19Q, H32Y
notes: nanobody from the semi-synthetic non-immune llama library Nomad#1; His6-tagged alkaline phosphatase fusion from pecan16; also called AP-NbE7; source: E. coli BL21Star periplasm (pecan16), purified (IMAC); not shown: alkaline phosphatase, C-terminal, kept
With B4, the binding result in assay [1] is “no binding (tested: 2 μg/ml)”.

B5: NbE2 (VHH)
VHH: QVKLQQSGGGSVQVGGSLRLSCTASGSAFIINTMSWYRRAPGKQRELVATITRRGTTNYADSVKGRFTISRDNAENTVDLHMNSLKPEDTAVYYCKGYRADWMTDYWGQGTQVTVSS
notes: as for B1
B5: in assay [1], the binding result was “no binding (tested: 2 μg/ml)”.

B6: NbH3 (VHH)
VHH: EVKLQESGGGLAQSGGSLRLSCAPQLGAHTIVAMGWYRQPPDSQREFVAMLFANGITRYNEAVKGRFTISRDDAKNTMYLQMNNLKPEDTAVYYCKIYDHSIMTDYWGQGTQVTVSS
notes: as for B1
Regarding B6, the binding result in assay [1] is “no binding (tested: 2 μg/ml)”.

B7: NbG12 (VHH)
VHH: VQLQASGGGLVQAGSSRRLYCAFSGDTFNGRPMGWFRQAPGKEREFVATISASGGRTYYAGSVLGRFTISRDNTRNTVSLQMNNLTPEDTAVYYCAAKRPTALSDNYDYKTENEYNYWGQGTQVTVS
notes: nanobody from the immune llama library; Nucleus-staining nanobody; source: bacterial periplasm (pecan126 phagemid clone), purified (His60-Ni-Superflow resin)
B7: the binding result in assay [3] is given as “binds”.
